Source: the supplement of paper PMC9112550, “Optimization of the antimicrobial peptide Bac7 by deep mutational scanning” (BMC Biology, 2022)

System: Escherichia coli TOP10
Assay: shrunken log2 fold change of peptide-encoding DNA abundance (4.5 h post-induction vs induction); higher = less antimicrobial activity (less host growth inhibition)
Details: time post-induction: 4.5 h; library: site-saturation at positions 5, 18, 19, 20
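Also: peptides expressed intracellularly from a pBAD plasmid library in pooled LB shake-flask culture, induced with 0.3% L-arabinose, DNA abundance read by NGS, three biological replicates, DESeq2 with apeglm shrinkage.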

| Sequence | shrunken log2 fold change |
| --- | --- |
| RRIRQRPPRLPRPRPRPCDLPRP | -0.265 |
| RRIRTRPPRLPRPRPRPWLAPRP | 0.216 |
| RRIRPRPPRLPRPRPRPSQIPRP | -0.112 |
| RRIRARPPRLPRPRPRPYKTPRP | -0.0275 |
| RRIRNRPPRLPRPRPRPLLIPRP | 0.589 |
| RRIRDRPPRLPRPRPRPKLGPRP | -0.000429 |
| RRIRNRPPRLPRPRPRPSQWPRP | -0.194 |
| RRIRQRPPRLPRPRPRPLFYPRP | -0.251 |
| RRIRERPPRLPRPRPRPHKVPRP | -0.361 |
| RRIRMRPPRLPRPRPRPFMWPRP | -0.128 |
| RRIRIRPPRLPRPRPRPVEAPRP | -0.205 |
| RRIRCRPPRLPRPRPRPSIHPRP | -0.929 |
| RRIRRRPPRLPRPRPRPAVMPRP | 0.0975 |
| RRIRLRPPRLPRPRPRPMVQPRP | -0.147 |
| RRIRKRPPRLPRPRPRPVKIPRP | 0.158 |
| RRIRCRPPRLPRPRPRPNLFPRP | -0.932 |
| RRIRMRPPRLPRPRPRPGDNPRP | -0.00193 |
| RRIRKRPPRLPRPRPRPAISPRP | 0.214 |
| RRIRKRPPRLPRPRPRPWNHPRP | -0.172 |
| RRIRWRPPRLPRPRPRPSHWPRP | 0.3 |
| RRIRFRPPRLPRPRPRPPGLPRP | 0.573 |
| RRIRFRPPRLPRPRPRPMMWPRP | -0.011 |
| RRIRDRPPRLPRPRPRPTCIPRP | 0.0607 |
| RRIRPRPPRLPRPRPRPSCPPRP | -0.123 |
| RRIRFRPPRLPRPRPRPDSNPRP | -0.758 |

| Sequence | shrunken log2 fold change |
| --- | --- |
| RRIRYRPPRLPRPRPRPANCPRP | -0.225 |
| RRIRNRPPRLPRPRPRPYPCPRP | -0.00822 |
| RRIRERPPRLPRPRPRPFDFPRP | -0.146 |
| RRIRPRPPRLPRPRPRPQKAPRP | 1.05 |
| RRIRQRPPRLPRPRPRPHKDPRP | -0.105 |
| RRIRYRPPRLPRPRPRPKPMPRP | 0.0517 |
| RRIRPRPPRLPRPRPRPRFSPRP | -0.0121 |
| RRIRERPPRLPRPRPRPHPLPRP | -0.0971 |
| RRIRVRPPRLPRPRPRPTWMPRP | 0.0438 |
| RRIRDRPPRLPRPRPRPHKLPRP | 0.00695 |
| RRIRLRPPRLPRPRPRPARQPRP | 0.281 |
| RRIRARPPRLPRPRPRPRGYPRP | 0.166 |
| RRIRQRPPRLPRPRPRPGTLPRP | -0.0134 |
| RRIRKRPPRLPRPRPRPYMDPRP | -0.763 |
| RRIRERPPRLPRPRPRPKAMPRP | 0.282 |
| RRIRPRPPRLPRPRPRPCNVPRP | -0.314 |
| RRIRCRPPRLPRPRPRPWVLPRP | -0.265 |
| RRIRQRPPRLPRPRPRPNKPPRP | -0.195 |
| RRIRLRPPRLPRPRPRPILEPRP | -0.186 |
| RRIRHRPPRLPRPRPRPNAMPRP | -0.0505 |
| RRIRIRPPRLPRPRPRPNKLPRP | -0.499 |
| RRIRCRPPRLPRPRPRPDDVPRP | -0.0387 |
| RRIRRRPPRLPRPRPRPHFTPRP | -0.0671 |
| RRIRTRPPRLPRPRPRPMDWPRP | -0.05 |
| RRIRLRPPRLPRPRPRPRHLPRP | -0.818 |

| Sequence | shrunken log2 fold change |
| --- | --- |
| RRIRRRPPRLPRPRPRPDGNPRP | 0.0694 |
| RRIRGRPPRLPRPRPRPRTVPRP | 0.448 |
| RRIRGRPPRLPRPRPRPTPAPRP | 1.43 |
| RRIRQRPPRLPRPRPRPNEKPRP | -0.0522 |
| RRIRIRPPRLPRPRPRPCYMPRP | -0.49 |
| RRIRKRPPRLPRPRPRPYKDPRP | -0.213 |
| RRIRYRPPRLPRPRPRPIMKPRP | 0.0367 |
| RRIRNRPPRLPRPRPRPEFGPRP | -0.106 |
| RRIRHRPPRLPRPRPRPMLEPRP | 0.0721 |
| RRIRLRPPRLPRPRPRPAIMPRP | -0.16 |
| RRIRTRPPRLPRPRPRPCDWPRP | -0.0538 |
| RRIRMRPPRLPRPRPRPFSWPRP | 0.0956 |
| RRIRKRPPRLPRPRPRPALTPRP | 0.622 |
| RRIRFRPPRLPRPRPRPRRCPRP | 0.143 |
| RRIRKRPPRLPRPRPRPFCSPRP | -0.00787 |
| RRIRMRPPRLPRPRPRPVGAPRP | 1.34 |
| RRIRYRPPRLPRPRPRPHAIPRP | -0.268 |
| RRIRARPPRLPRPRPRPWDPPRP | 0.496 |
| RRIRWRPPRLPRPRPRPPWTPRP | 0.688 |
| RRIRQRPPRLPRPRPRPQPGPRP | 0.0446 |
| RRIRARPPRLPRPRPRPNEKPRP | -0.0878 |
| RRIRMRPPRLPRPRPRPKGDPRP | 2.08 |
| RRIRHRPPRLPRPRPRPIIKPRP | -0.279 |
| RRIRYRPPRLPRPRPRPVWMPRP | -0.283 |
| RRIRPRPPRLPRPRPRPIEVPRP | -0.113 |

| Sequence | shrunken log2 fold change |
| --- | --- |
| RRIRSRPPRLPRPRPRPWLEPRP | -0.0707 |
| RRIRIRPPRLPRPRPRPGSLPRP | -0.475 |
| RRIRPRPPRLPRPRPRPPHYPRP | 0.457 |
| RRIRQRPPRLPRPRPRPDCVPRP | -0.0384 |
| RRIRSRPPRLPRPRPRPCSYPRP | -0.379 |
| RRIRLRPPRLPRPRPRPHNKPRP | -0.59 |
| RRIRIRPPRLPRPRPRPLDWPRP | -0.418 |
| RRIRIRPPRLPRPRPRPNYQPRP | -0.43 |
| RRIRWRPPRLPRPRPRPGWRPRP | 0.617 |
| RRIRTRPPRLPRPRPRPYWRPRP | -0.174 |
| RRIRRRPPRLPRPRPRPVHHPRP | -0.468 |
| RRIRWRPPRLPRPRPRPEMAPRP | 1.14 |
| RRIRYRPPRLPRPRPRPLIDPRP | -0.00288 |
| RRIRIRPPRLPRPRPRPMAKPRP | -0.00776 |
| RRIRLRPPRLPRPRPRPYNVPRP | -0.119 |
| RRIRERPPRLPRPRPRPQACPRP | -0.0746 |
| RRIRWRPPRLPRPRPRPHKCPRP | 0.188 |
| RRIRHRPPRLPRPRPRPDPIPRP | 0.0172 |
| RRIRHRPPRLPRPRPRPGAPPRP | 0.384 |
| RRIRERPPRLPRPRPRPQQWPRP | 0.19 |
| RRIRARPPRLPRPRPRPGRIPRP | 0.148 |
| RRIRDRPPRLPRPRPRPKHQPRP | 0.0157 |
| RRIRIRPPRLPRPRPRPCRRPRP | -0.23 |
| RRIRNRPPRLPRPRPRPCFNPRP | 0.0695 |
| RRIRMRPPRLPRPRPRPAFEPRP | 0.763 |

| Sequence | shrunken log2 fold change |
| --- | --- |
| RRIRLRPPRLPRPRPRPLTAPRP | -0.0325 |
| RRIRVRPPRLPRPRPRPNQVPRP | -0.185 |
| RRIRQRPPRLPRPRPRPTLVPRP | 0.186 |
| RRIRVRPPRLPRPRPRPTQVPRP | 0.103 |
| RRIRSRPPRLPRPRPRPWTDPRP | -0.12 |
| RRIRTRPPRLPRPRPRPYRAPRP | -0.0709 |
| RRIRYRPPRLPRPRPRPMLWPRP | -0.0139 |
| RRIRFRPPRLPRPRPRPFWNPRP | -0.00687 |
| RRIRVRPPRLPRPRPRPAVPPRP | 0.0151 |
| RRIRPRPPRLPRPRPRPWFSPRP | -0.255 |
| RRIRLRPPRLPRPRPRPHNTPRP | -0.61 |
| RRIRDRPPRLPRPRPRPLGCPRP | 0.206 |
| RRIRLRPPRLPRPRPRPQALPRP | -0.042 |
| RRIRCRPPRLPRPRPRPEDQPRP | 1.21 |
| RRIRIRPPRLPRPRPRPWQCPRP | 0.034 |
| RRIRFRPPRLPRPRPRPSQIPRP | -0.253 |
| RRIRNRPPRLPRPRPRPHKFPRP | -0.231 |
| RRIRNRPPRLPRPRPRPPGDPRP | 0.127 |
| RRIRVRPPRLPRPRPRPCRLPRP | -0.0106 |
| RRIRNRPPRLPRPRPRPKDEPRP | 0.536 |
| RRIRMRPPRLPRPRPRPHYKPRP | -0.539 |
| RRIRIRPPRLPRPRPRPARLPRP | -0.0547 |
| RRIRWRPPRLPRPRPRPSNLPRP | -0.0676 |
| RRIRERPPRLPRPRPRPFCPPRP | -0.149 |
| RRIRYRPPRLPRPRPRPISWPRP | -0.0102 |
